Measurements: PMC10659949 (Protein Science : A Publication of the Protein Society, 2023)

Columns and labels:
Conditions in all cases: both partners purified
[1] = target: T1, biotinylated α-cobratoxin from Naja kaouthia (Naja kaouthia, UniProt P01391, biotin (1:1.25 toxin: biotin reagent molar ratio; site not stated)); experiment: BLI; […]) in HEPES-MES buffer pH 7.4; dissociation in HEPES-MES pH 7.4; 1:1 binding model, global fit; […]
T1 construct: source: bought: Latoxan (purified, from N. kaouthia), then biotinylated

[2] = target: T2, biotinylated α-bungarotoxin from Bungarus multicinctus (Bungarus multicinctus, UniProt P60615); experiment: BLI
T2 construct: source: bought: Latoxan (purified, from B. multicinctus), then biotinylated

[3] = target: T1, biotinylated α-cobratoxin from Naja …; experiment: BLI; […]; dissociation in HEPES-MES pH 5.5; 1:1 binding model, global fit; […]

T1 sequence (P01391 whole entry): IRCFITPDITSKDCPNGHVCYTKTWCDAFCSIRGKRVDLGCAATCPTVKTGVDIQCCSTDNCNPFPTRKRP
T2 sequence (P60615 22-95): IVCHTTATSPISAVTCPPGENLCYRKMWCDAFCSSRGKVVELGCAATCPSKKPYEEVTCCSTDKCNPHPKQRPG

B1: Fab TPL0197_01_C08 (Fab, V domains shown)
VH: EVQLVQSGAEVKKPGASVKVSCKASGYTFTSYGISWVRQAPGQGLEWMGWISAYNGNTNYAQKLQGRVTMTTDTSTSTAYMELRSLRSDDTAVYYCAREEYCSSTSCYVGNYYGMDVWGQGTLVTVSS
VL: DIQMTQSPSSLSASVGDRVTITCQASQDISNYLNWYQQKPGKAPKLLIYAASSLESGVPSRFSGSGSGTEFTLTITNLQVDDFATYYCQRYDSNFAFGQGTKVEIK
notes: also called Fab C08; source: ExpiCHO cells, purified (Ni-NTA / HisTrap Excel, desalting)
Kd [1]: 44.8 nM
koff [1]: 0.00076 s⁻¹
binding result [2]: no binding (tested: 300 nM)
koff [3]: 0.00535 s⁻¹
